This note sets out measurements from the supplement of paper PMC7877785.

± gives the uncertainty stated by the source.

The data set can be described thus: self-splicing fitness, log relative to wild type (ln ratio); higher = more splicing; Tetrahymena group I intron in knt gene, E. coli kanamycin selection, DiMSum; sequences stand for … in CUCUCU…GGAGGGAAAAGUUAUCAGGCAUGCACCUGGUAGCUAGUCUUUAAACCAAUAGAUUGCAUCGGUUUAAAAGGCAAGACCGUCAAAUUGCGGGAAAGGGGUCAACAGCCGUUCAGUACCAAGUCUCAGGGGAAACUUUGAGAUGGCCUUGCAAAGGGUAUGGUAAUAAGCUGACGGACAUGGUCCUAACCACGCAGCCAAGUCCUAAGUCAACAGAUCUUCUGUUGAUAUGGAUGCAGUUCACAGACUAAAUGUCGGUCGGGGAAGAUGUAUUCUUCUCAUAAGAUAUAGUCGGACCUCUCCUUAAUGGGAGCUAGCGGAUGAAGUGAUGCAACACUGGAGCCGCUGGGAACUAAUUUGUAUGCGAAAGUAUAUUGAUUAGUUUUGGAGUACUCGUGGUCG
The method in brief:
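The eight P1ex-region nucleotides of an intron in the knt kanamycin-resistance gene on pET-22b(+) were all randomised and the library put into E. coli BL21(DE3). Six replicate transformations were grown overnight at 37°C or 30°C on LB agar with or without 25 μg/mL kanamycin, together with 100 μg/mL carbenicillin, 50 μM IPTG and 0.2% rhamnose. Colonies were pooled and amplicon-sequenced on an Illumina HiSeq 2500. Fitness from DiMSum is the error-weighted combination of wild-type-normalised replicate fold changes, kanamycin over none.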

As to CCAUAGCAAUAUUACGCUAC, the “self-splicing fitness (ln)” value (30 °C) is -4.24 ± 0.28 and the “self-splicing fitness (ln)” value (37 °C) is -3.23 ± 0.32.
As for UAAUAGCAAUAUUACGUGGC, the “self-splicing fitness (ln)” value (30 °C) is -3.76 ± 0.35 and the “self-splicing fitness (ln)” value (37 °C) is -2.88 ± 0.43.
The like results for CGACAGCAAUAUUACGCUGU were, in that order, -3.04 ± 0.14 and -2.55 ± 0.15.
The corresponding values for CCACAGCAAUAUUACGGCGC are -3.56 ± 0.16 and -2.17 ± 0.13.
The like results for AUACAGCAAUAUUACGCGGU were, in that order, -3.44 ± 0.21 and -2.04 ± 0.18.
As to UGAGAGCAAUAUUACGCAGU, the “self-splicing fitness (ln)” value (30 °C) is -4.62 ± 0.34 and the “self-splicing fitness (ln)” value (37 °C) is -2.41 ± 0.18.
For GGCUAGCAAUAUUACGGGUU, the “self-splicing fitness (ln)” value (30 °C) was -1.9 ± 0.096 and the “self-splicing fitness (ln)” value (37 °C) was -0.879 ± 0.09.
The like results for GCCGAGCAAUAUUACGUGCU were, in that order, -3.92 ± 0.21 and -2.08 ± 0.15.
For the sequence CGCAAGCAAUAUUACGCUUA, the “self-splicing fitness (ln)” value runs as follows: (30 °C) -3.58 ± 0.35; (37 °C) -1.8 ± 0.18.
For the sequence AGAAAGCAAUAUUACGUAGG, the “self-splicing fitness (ln)” value is, setting by setting: (30 °C) -2.89 ± 0.14; (37 °C) -2.16 ± 0.15.
Regarding GGCAAGCAAUAUUACGAACA, the “self-splicing fitness (ln)” value (30 °C) was -2.07 ± 0.24 and the “self-splicing fitness (ln)” value (37 °C) is -0.92 ± 0.18.
The corresponding values for CGCCAGCAAUAUUACGCUCC are -0.395 ± 0.13 and -1.36 ± 0.2.
The corresponding values for GAGAAGCAAUAUUACGAGUG are -2.91 ± 0.14 and -1.01 ± 0.11.
AGAGAGCAAUAUUACGGACG: the “self-splicing fitness (ln)” value was -2.64 ± 0.3 (30 °C) and -1.61 ± 0.44 (37 °C).
Consider GCAAAGCAAUAUUACGCGUC, for which the “self-splicing fitness (ln)” value (30 °C) is -2.92 ± 0.28 and the “self-splicing fitness (ln)” value (37 °C) was -1.94 ± 0.32.
On to GGGGAGCAAUAUUACGACAC, for which the “self-splicing fitness (ln)” value by setting is: (30 °C) -0.721 ± 0.14; (37 °C) -0.843 ± 0.24.
The corresponding values for CACGAGCAAUAUUACGGUAG are -2.41 ± 0.12 and -2.18 ± 0.14.
In the case of CAGAAGCAAUAUUACGUAGU, the “self-splicing fitness (ln)” value is -4.18 ± 0.24 (30 °C) and -1.97 ± 0.17 (37 °C).
In the case of GACGAGCAAUAUUACGACAU, the “self-splicing fitness (ln)” value reads like this: (30 °C) -2.931 ± 0.021; (37 °C) -1.99 ± 0.036.
Regarding UUUGAGCAAUAUUACGUUCA, for the setting “37 °C”, the “self-splicing fitness (ln)” value is -2.38 ± 0.36.
On to UGCGAGCAAUAUUACGAAAG, for which the “self-splicing fitness (ln)” value is -2.87 ± 0.29 (30 °C) and -2.87 ± 0.43 (37 °C).
For the sequence GGGCAGCAAUAUUACGCUGA, the “self-splicing fitness (ln)” value is -1.25 ± 0.12 (30 °C) and -0.998 ± 0.15 (37 °C).
For the sequence UAACAGCAAUAUUACGGUUA, the “self-splicing fitness (ln)” value (30 °C) is -1.59 ± 0.1 and the “self-splicing fitness (ln)” value (37 °C) is -0.652 ± 0.096.
The corresponding values for CUAUAGCAAUAUUACGAGUC are -2.61 ± 0.24 and -2.52 ± 0.3.
On to GGCAAGCAAUAUUACGUCCC, for which, for the setting “37 °C”, the “self-splicing fitness (ln)” value is -0.249 ± 0.28.
Take AGUCAGCAAUAUUACGUGAU: the “self-splicing fitness (ln)” value by setting is: (30 °C) -1.52 ± 0.077; (37 °C) -0.719 ± 0.1.
The corresponding values for CCCAAGCAAUAUUACGAUCA are -3.67 ± 0.26 and -2.57 ± 0.16.
Turning to CAAAAGCAAUAUUACGCCGC, the “self-splicing fitness (ln)” value (37 °C) was -1.32 ± 0.48.
With AUUGAGCAAUAUUACGUCUA, the “self-splicing fitness (ln)” value reads like this: (30 °C) -2.12 ± 0.17; (37 °C) -1.77 ± 0.21.
The like results for CUCAAGCAAUAUUACGAGAG were, in that order, -3.27 ± 0.22 and -1.81 ± 0.23.
The like results for AGCAAGCAAUAUUACGUUCA were, in that order, -0.99 ± 0.081 and -0.464 ± 0.1.
The like results for GAUGAGCAAUAUUACGCCUA were, in that order, -1.7 ± 0.29 and -0.51 ± 0.26.
Turning to CACCAGCAAUAUUACGAUUA, the “self-splicing fitness (ln)” value reads like this: (30 °C) -2.82 ± 0.14; (37 °C) -1.26 ± 0.11.
The like results for CCCAAGCAAUAUUACGUCCG were, in that order, -3.6 ± 0.43 and -2.45 ± 0.3.
The like results for UCACAGCAAUAUUACGGCGU were, in that order, -3.04 ± 0.19 and -2.93 ± 0.2.
Regarding UUGUAGCAAUAUUACGCAGG, the “self-splicing fitness (ln)” value was -1.6 ± 0.24 (30 °C) and 0.28 ± 0.17 (37 °C).
Consider GACGAGCAAUAUUACGAGCU, for which, under “30 °C”, the “self-splicing fitness (ln)” value was -3.27 ± 0.31.
CGUCAGCAAUAUUACGGCGC: the “self-splicing fitness (ln)” value is, setting by setting: (30 °C) -3.38 ± 0.37; (37 °C) -1.3 ± 0.35.
The like results for ACGCAGCAAUAUUACGACCC were, in that order, -1.66 ± 0.18 and -0.0893 ± 0.28.
For AGGCAGCAAUAUUACGAAUU, the “self-splicing fitness (ln)” value is -1.29 ± 0.064 (30 °C) and -1.4 ± 0.093 (37 °C).
As for AUGGAGCAAUAUUACGGUGA, the “self-splicing fitness (ln)” value (30 °C) is -2.9 ± 0.44.
In the case of UGCCAGCAAUAUUACGUAAC, the “self-splicing fitness (ln)” value by setting is: (30 °C) -2.39 ± 0.18; (37 °C) -2.36 ± 0.2.
The corresponding values for ACUAAGCAAUAUUACGUCAC are -3.64 ± 0.19 and -2.91 ± 0.27.
The corresponding values for CGCCAGCAAUAUUACGCUGG are -3.22 ± 0.17 and -2.2 ± 0.18.
Regarding AACCAGCAAUAUUACGCCUG, the “self-splicing fitness (ln)” value runs as follows: (30 °C) -1.8 ± 0.066; (37 °C) -0.745 ± 0.087.
For GAGUAGCAAUAUUACGGGCC, the “self-splicing fitness (ln)” value is, setting by setting: (30 °C) -2.52 ± 0.15; (37 °C) -1.32 ± 0.13.
The corresponding values for GAAAAGCAAUAUUACGACUU are -0.183 ± 0.063 and 0.52 ± 0.096.
With GUGGAGCAAUAUUACGGAUU, the “self-splicing fitness (ln)” value (30 °C) was -3.15 ± 0.47.
For GUUCAGCAAUAUUACGCAUC, the “self-splicing fitness (ln)” value runs as follows: (30 °C) -0.592 ± 0.12; (37 °C) -0.361 ± 0.14.
The like results for AUUAAGCAAUAUUACGCAUA were, in that order, -1.98 ± 0.24 and -1.32 ± 0.22.
The like results for UCCCAGCAAUAUUACGCCGC were, in that order, -4.73 ± 0.32 and -3.05 ± 0.27.
The like results for GGAGAGCAAUAUUACGACAC were, in that order, -0.961 ± 0.28 and 0.238 ± 0.22.
As to UGGCAGCAAUAUUACGCACU, the “self-splicing fitness (ln)” value is -0.473 ± 0.068 (30 °C) and 0.399 ± 0.094 (37 °C).
The corresponding values for GUUAAGCAAUAUUACGCUCU are -1.24 ± 0.1 and -1.12 ± 0.11.
The corresponding values for AGGUAGCAAUAUUACGAAAA are -2.61 ± 0.031 and -2.01 ± 0.041.
The corresponding values for CGCCAGCAAUAUUACGACGG are -1.65 ± 0.11 and -0.853 ± 0.12.
As for ACACAGCAAUAUUACGAGAU, the “self-splicing fitness (ln)” value by setting is: (30 °C) -3.79 ± 0.16; (37 °C) -0.784 ± 0.11.
The corresponding values for AAUCAGCAAUAUUACGGCGU are 0.47 ± 0.068 and 0.7 ± 0.076.
Take UUUGAGCAAUAUUACGCGAA: the “self-splicing fitness (ln)” value is -2.96 ± 0.34 (30 °C) and -1.71 ± 0.2 (37 °C).
The like results for AAAAAGCAAUAUUACGUAGA were, in that order, -2.21 ± 0.062 and -1.33 ± 0.065.
The like results for AAAUAGCAAUAUUACGGGCA were, in that order, -1.22 ± 0.11 and -0.312 ± 0.14.
The like results for UUGAAGCAAUAUUACGUGGU were, in that order, -3.78 ± 0.25 and -2.94 ± 0.34.
Consider CGUAAGCAAUAUUACGAGAG, for which the “self-splicing fitness (ln)” value is, setting by setting: (30 °C) -3.56 ± 0.22; (37 °C) -3.14 ± 0.28.
For GUCAAGCAAUAUUACGGGAU, the “self-splicing fitness (ln)” value was -5.19 ± 0.27 (30 °C) and -2.96 ± 0.21 (37 °C).
For GUUCAGCAAUAUUACGUAAC, the “self-splicing fitness (ln)” value reads like this: (30 °C) -0.462 ± 0.17; (37 °C) -0.994 ± 0.26.
The like results for CCACAGCAAUAUUACGGUGG were, in that order, -4.51 ± 0.17 and -2.28 ± 0.11.
Take GUUAAGCAAUAUUACGUACG: the “self-splicing fitness (ln)” value (30 °C) was -1.83 ± 0.14 and the “self-splicing fitness (ln)” value (37 °C) was -0.662 ± 0.14.
The corresponding values for ACGCAGCAAUAUUACGCGGU are -4.57 ± 0.19 and -2.37 ± 0.12.
The corresponding values for UCCGAGCAAUAUUACGACAU are -3.93 ± 0.031 and -2.98 ± 0.043.
As to CGCGAGCAAUAUUACGGCCU, the “self-splicing fitness (ln)” value was -2.69 ± 0.26 (30 °C) and -1.65 ± 0.22 (37 °C).
Turning to UGGGAGCAAUAUUACGGGGA, the “self-splicing fitness (ln)” value by setting is: (30 °C) -2.94 ± 0.32; (37 °C) -2.9 ± 0.29.
The corresponding values for CUGAAGCAAUAUUACGGAUG are -2.18 ± 0.1 and -1.14 ± 0.1.
In the case of CACAAGCAAUAUUACGGAGU, the “self-splicing fitness (ln)” value reads like this: (30 °C) -3.2 ± 0.13; (37 °C) -2.64 ± 0.15.
Turning to UGCUAGCAAUAUUACGGAGA, the “self-splicing fitness (ln)” value (37 °C) was -2 ± 0.22.
CCUCAGCAAUAUUACGGUAC: the “self-splicing fitness (ln)” value is, setting by setting: (30 °C) -4.96 ± 0.32; (37 °C) -2.26 ± 0.26.
Regarding CAUCAGCAAUAUUACGUCGU, the “self-splicing fitness (ln)” value is -1.93 ± 0.097 (30 °C) and -1.19 ± 0.11 (37 °C).
AUUCAGCAAUAUUACGUGCU: the “self-splicing fitness (ln)” value runs as follows: (30 °C) -2.95 ± 0.2; (37 °C) -1.81 ± 0.3.
